Results as given in the supplement of paper PMC7877785.
± gives the uncertainty stated by the source.

Assay: self-splicing fitness, log relative to wild type (ln ratio); higher = more splicing; Tetrahymena group I intron in knt gene, E. coli kanamycin selection, DiMSum; sequences stand for … in CUCUCU…GGAGGGAAAAGUUAUCAGGCAUGCACCUGGUAGCUAGUCUUUAAACCAAUAGAUUGCAUCGGUUUAAAAGGCAAGACCGUCAAAUUGCGGGAAAGGGGUCAACAGCCGUUCAGUACCAAGUCUCAGGGGAAACUUUGAGAUGGCCUUGCAAAGGGUAUGGUAAUAAGCUGACGGACAUGGUCCUAACCACGCAGCCAAGUCCUAAGUCAACAGAUCUUCUGUUGAUAUGGAUGCAGUUCACAGACUAAAUGUCGGUCGGGGAAGAUGUAUUCUUCUCAUAAGAUAUAGUCGGACCUCUCCUUAAUGGGAGCUAGCGGAUGAAGUGAUGCAACACUGGAGCCGCUGGGAACUAAUUUGUAUGCGAAAGUAUAUUGAUUAGUUUUGGAGUACUCGUGGUCG
In short: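 The eight P1ex-region nucleotides of an intron in the knt kanamycin-resistance gene on pET-22b(+) were all randomised and the library put into E. coli BL21(DE3). Six replicate transformations were grown overnight at 37°C or 30°C on LB agar with or without 25 μg/mL kanamycin, together with 100 μg/mL carbenicillin, 50 μM IPTG and 0.2% rhamnose. Colonies were pooled and amplicon-sequenced on an Illumina HiSeq 2500. Fitness from DiMSum is the error-weighted combination of wild-type-normalised replicate fold changes, kanamycin over none.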

| Sequence | self-splicing fitness (ln) (30 °C) | self-splicing fitness (ln) (37 °C) |
| --- | --- | --- |
| UAUGAGCAAUAUUACGACCA | -2.25 ± 0.16 | -2.07 ± 0.18 |
| UAUGAGCAAUAUUACGAGGG | -3.93 ± 0.42 | -2.66 ± 0.29 |
| UAUGAGCAAUAUUACGCAUA | – | -2.21 ± 0.42 |
| UAUGAGCAAUAUUACGCCAG | -2.96 ± 0.4 | -1.21 ± 0.38 |
| UAUGAGCAAUAUUACGCCCG | -2.23 ± 0.3 | 0.00889 ± 0.21 |
| UAUGAGCAAUAUUACGCGCA | -1.68 ± 0.12 | -0.965 ± 0.15 |
| UAUGAGCAAUAUUACGCUAG | -3.34 ± 0.41 | – |
| UAUGAGCAAUAUUACGCUGG | -2.71 ± 0.33 | -1.79 ± 0.38 |
| UAUGAGCAAUAUUACGGAUC | -3.84 ± 0.44 | -2.19 ± 0.41 |
| UAUGAGCAAUAUUACGGCCU | -4 ± 0.37 | – |
| UAUGAGCAAUAUUACGGCGA | -0.815 ± 0.17 | -0.45 ± 0.16 |
| UAUGAGCAAUAUUACGGGAG | -1.86 ± 0.19 | -2.95 ± 0.24 |
| UAUGAGCAAUAUUACGGUGG | -1.85 ± 0.22 | -2.72 ± 0.37 |
| UAUGAGCAAUAUUACGGUUA | -1.76 ± 0.15 | 0.43 ± 0.12 |
| UAUGAGCAAUAUUACGUACA | -2.39 ± 0.18 | -1.62 ± 0.23 |
| UAUGAGCAAUAUUACGUACG | -2.35 ± 0.19 | -1.34 ± 0.21 |
| UAUGAGCAAUAUUACGUAGU | -3.67 ± 0.28 | -1.99 ± 0.21 |
| UAUGAGCAAUAUUACGUAUG | -2.35 ± 0.22 | -1.58 ± 0.27 |
| UAUGAGCAAUAUUACGUCAA | – | -2.59 ± 0.38 |
| UAUGAGCAAUAUUACGUCUC | -2.45 ± 0.25 | – |
| UAUGAGCAAUAUUACGUGGA | -3.52 ± 0.35 | -3.47 ± 0.43 |
| UAUUAGCAAUAUUACGAAAG | -2.42 ± 0.37 | – |
| UAUUAGCAAUAUUACGAAUA | -0.842 ± 0.38 | -0.292 ± 0.38 |
| UAUUAGCAAUAUUACGACUU | -0.468 ± 0.13 | -0.537 ± 0.14 |
| UAUUAGCAAUAUUACGAGAG | -3.48 ± 0.26 | -3.11 ± 0.29 |
| UAUUAGCAAUAUUACGAUAA | -1.07 ± 0.19 | 0.628 ± 0.16 |

| Sequence | self-splicing fitness (ln) (30 °C) | self-splicing fitness (ln) (37 °C) |
| --- | --- | --- |
| UAUUAGCAAUAUUACGAUAC | – | -1.13 ± 0.24 |
| UAUUAGCAAUAUUACGAUUC | -1.88 ± 0.16 | -0.062 ± 0.18 |
| UAUUAGCAAUAUUACGCAUA | -0.754 ± 0.29 | -0.355 ± 0.26 |
| UAUUAGCAAUAUUACGCCAA | -1.65 ± 0.2 | -1.68 ± 0.23 |
| UAUUAGCAAUAUUACGCCCU | -1.3 ± 0.21 | 0.526 ± 0.2 |
| UAUUAGCAAUAUUACGCCGA | -2.3 ± 0.31 | -0.195 ± 0.28 |
| UAUUAGCAAUAUUACGCCUG | -0.0456 ± 0.13 | 0.00497 ± 0.16 |
| UAUUAGCAAUAUUACGGCGA | -0.206 ± 0.15 | -0.325 ± 0.16 |
| UAUUAGCAAUAUUACGGGCU | -3.47 ± 0.27 | -2.3 ± 0.23 |
| UAUUAGCAAUAUUACGGGUU | -2.08 ± 0.13 | -1.77 ± 0.2 |
| UAUUAGCAAUAUUACGUAAC | -1.8 ± 0.19 | -1.09 ± 0.2 |
| UAUUAGCAAUAUUACGUGCU | -2.12 ± 0.12 | -2.04 ± 0.15 |
| UAUUAGCAAUAUUACGUUUA | -1.6 ± 0.21 | 0.132 ± 0.2 |
| UCAAAGCAAUAUUACGAGUA | -2.07 ± 0.083 | -0.678 ± 0.072 |
| UCAAAGCAAUAUUACGAUAU | -3.62 ± 0.23 | -2.67 ± 0.18 |
| UCAAAGCAAUAUUACGAUCA | -0.91 ± 0.12 | -0.719 ± 0.11 |
| UCAAAGCAAUAUUACGAUCC | -3.21 ± 0.3 | -2.34 ± 0.4 |
| UCAAAGCAAUAUUACGCAUA | -2.68 ± 0.17 | -1.62 ± 0.16 |
| UCAAAGCAAUAUUACGCCAA | -2.7 ± 0.28 | -2.12 ± 0.37 |
| UCAAAGCAAUAUUACGCCGU | -2.43 ± 0.18 | -0.576 ± 0.12 |
| UCAAAGCAAUAUUACGCGGU | -2.75 ± 0.14 | -2.97 ± 0.16 |
| UCAAAGCAAUAUUACGCUCG | -0.615 ± 0.081 | -0.0673 ± 0.12 |
| UCAAAGCAAUAUUACGCUUA | -2.87 ± 0.14 | -2.53 ± 0.17 |
| UCAAAGCAAUAUUACGCUUC | -4.01 ± 0.23 | -2.02 ± 0.23 |
| UCAAAGCAAUAUUACGGACU | -3.52 ± 0.3 | -2.27 ± 0.25 |
| UCAAAGCAAUAUUACGGAGA | -3.38 ± 0.28 | -1.61 ± 0.17 |

| Sequence | self-splicing fitness (ln) (30 °C) | self-splicing fitness (ln) (37 °C) |
| --- | --- | --- |
| UCAAAGCAAUAUUACGGGUG | -0.366 ± 0.056 | 0.234 ± 0.074 |
| UCAAAGCAAUAUUACGGUGA | -0.776 ± 0.098 | -0.408 ± 0.11 |
| UCAAAGCAAUAUUACGGUUC | -4.38 ± 0.22 | -2.5 ± 0.15 |
| UCAAAGCAAUAUUACGUAAG | -1.77 ± 0.08 | -0.788 ± 0.1 |
| UCAAAGCAAUAUUACGUUAG | -2.02 ± 0.12 | -1.64 ± 0.12 |
| UCAAAGCAAUAUUACGUUAU | -3.43 ± 0.18 | -3.37 ± 0.35 |
| UCAAAGCAAUAUUACGUUCG | -1.17 ± 0.087 | -0.407 ± 0.12 |
| UCAAAGCAAUAUUACGUUUU | -3.28 ± 0.16 | -3.18 ± 0.3 |
| UCACAGCAAUAUUACGAACU | -3.39 ± 0.16 | -2.23 ± 0.15 |
| UCACAGCAAUAUUACGAAUU | -4.34 ± 0.22 | -2.4 ± 0.16 |
| UCACAGCAAUAUUACGACAA | -1.3 ± 0.13 | -0.0758 ± 0.096 |
| UCACAGCAAUAUUACGACAC | -3.44 ± 0.38 | -2.71 ± 0.34 |
| UCACAGCAAUAUUACGACAG | -2.15 ± 0.082 | -1.47 ± 0.088 |
| UCACAGCAAUAUUACGACCA | -1.89 ± 0.21 | 0.0251 ± 0.21 |
| UCACAGCAAUAUUACGACGC | -2.07 ± 0.15 | -1.03 ± 0.2 |
| UCACAGCAAUAUUACGAUAA | -1.65 ± 0.066 | -0.733 ± 0.074 |
| UCACAGCAAUAUUACGAUGU | -4.15 ± 0.29 | -1.77 ± 0.17 |
| UCACAGCAAUAUUACGCCGU | -4.25 ± 0.46 | -3.02 ± 0.35 |
| UCACAGCAAUAUUACGCGUG | -2.87 ± 0.14 | -2.13 ± 0.14 |
| UCACAGCAAUAUUACGGAGC | -2.68 ± 0.15 | -2.04 ± 0.22 |
| UCACAGCAAUAUUACGGCCC | -3.44 ± 0.45 | -1.82 ± 0.44 |
| UCACAGCAAUAUUACGGCUA | -1.64 ± 0.095 | -0.219 ± 0.077 |
| UCACAGCAAUAUUACGGCUG | -3.35 ± 0.16 | -2.96 ± 0.23 |
| UCACAGCAAUAUUACGGGGA | -1.15 ± 0.065 | 0.015 ± 0.076 |
| UCACAGCAAUAUUACGGUUU | -2.56 ± 0.068 | -1.15 ± 0.067 |
| UCACAGCAAUAUUACGUAAA | -2.14 ± 0.069 | -1.18 ± 0.084 |
